Literature values in paper PMC8199771.

Tests used:
[1] = biological target: muscle nAChR alpha1-gamma and alpha1-delta interfaces (Mus musculus) (UniProt P04756)
[2] = biological target: muscle nAChR alpha1-epsilon interface (Mus musculus) (UniProt P04756)
[3] = biological target: muscle nAChR alpha-epsilon interface (Mus musculus) (UniProt P04756)
[4] = biological target: muscle nAChR (Homo sapiens) (UniProt P02708)
[5] = biological target: muscle nAChR alpha-delta interface (Mus musculus) (UniProt P04756)

For NmmI (from UniProt P01431), the Kd [1] is given as 0.1 nM and the Kd [2] is given as 100 nM.

For Waglerin-1 (from UniProt P24335), the Kd [3] is given as 9.8 nM, the Kd [4] is given as 692 nM and the Kd [5] is given as 20200 nM.
